Sequences and labels used below:
T1: T-STAR STAR (UniProt O75525 1-183)
T1 sequence: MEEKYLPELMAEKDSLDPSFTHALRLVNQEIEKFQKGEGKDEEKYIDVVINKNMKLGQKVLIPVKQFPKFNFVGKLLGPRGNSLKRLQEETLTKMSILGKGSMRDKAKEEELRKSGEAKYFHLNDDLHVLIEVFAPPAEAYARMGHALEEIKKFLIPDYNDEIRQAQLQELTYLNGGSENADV

T2: T-STAR QUA1-KH (UniProt O75525 1-160)
T2 sequence: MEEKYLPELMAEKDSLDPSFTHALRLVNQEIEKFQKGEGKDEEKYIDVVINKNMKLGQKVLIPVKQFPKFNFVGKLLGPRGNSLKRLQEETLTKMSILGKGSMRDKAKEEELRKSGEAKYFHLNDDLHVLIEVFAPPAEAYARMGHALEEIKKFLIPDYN

T3: T-STAR QUA1-KH Y141E (UniProt O75525 1-160, Y141E)
T3 sequence: T2 sequence with Y141E

T4: T-STAR STAR Y141E (UniProt O75525 1-183, Y141E)
T4 sequence: T1 sequence with Y141E

T5: T-STAR KH (UniProt O75525 50-160)
T5 sequence: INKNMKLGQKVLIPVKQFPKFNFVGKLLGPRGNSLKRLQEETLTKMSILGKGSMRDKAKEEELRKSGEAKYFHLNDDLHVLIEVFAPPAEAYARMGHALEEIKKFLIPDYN

T6: T-STAR KH-QUA2 (UniProt O75525 50-183)
T6 sequence: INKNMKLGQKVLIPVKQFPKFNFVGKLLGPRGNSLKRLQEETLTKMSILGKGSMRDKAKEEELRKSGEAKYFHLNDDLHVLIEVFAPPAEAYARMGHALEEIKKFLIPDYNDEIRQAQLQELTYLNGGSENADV

B1: SRE-4 (ssRNA)
RNA: UUUGGGGGUUCAAUAAAAAUUUUCACUAUCCUAUUAACAGUUCCGCCGCUCC
B2: T-STAR KH domain (amino acids 50-160) (domain or fragment, human, UniProt O75525 50-160, looked up)
chain: T5 sequence
notes: T-STAR/SLM2, human, KH domain, residues 50-160; The free KH structure (5EL3) was phased from a SeMet-labelled KH domain; the complex with AAAUAA is 5ELS; source: E. coli Rosetta BL21 DE3, purified (Ni-NTA, TEV cleavage, size-exclusion chromatography); not shown: His tag (inferred from the Ni-NTA purification)
B3: T-STAR KH-QUA2 domain (amino acids 50-183) (domain or fragment, human, UniProt O75525 50-183, looked up)
chain: T6 sequence
notes: T-STAR/SLM2, human, KH and QUA2 domains, residues 50-183; Crystallised with AAUAAU RNA; QUA2 not seen in the electron density; source: E. coli Rosetta BL21 DE3, purified (Ni-NTA, TEV cleavage, size-exclusion chromatography); not shown: His tag (inferred from the Ni-NTA purification)
B4: T-STAR QUA1-KH domain (domain or fragment, human)
chain: T2 sequence
notes: T-STAR/SLM2, human, QUA1 and KH domains with the linker between them; by the limits of the STAR (1-183) and KH (50-160) constructs they may be 1-160 (surmised); source: E. coli Rosetta BL21 DE3, purified (Ni-NTA, TEV cleavage, size-exclusion chromatography); not shown: His tag (inferred from the Ni-NTA purification)
B5: Sam68 STAR domain (amino acids 97-283) (domain or fragment, human, UniProt Q07666 97-283, looked up)
chain: MEPENKYLPELMAEKDSLDPSFTHAMQLLTAEIEKIQKGDSKKDDEENYLDLFSHKNMKLKERVLIPVKQYPKFNFVGKILGPQGNTIKRLQEETGAKISVLGKGSMRDKAKEEELRKGGDPKYAHLNMDLHVFIEVFGPPCEAYALMAHAMEEVKKFLVPDMMDDICQEQFLELSYLNGVPEPSRG
notes: Sam68 (Src-associated protein in mitosis of 68 kDa), human, STAR domain (QUA1, KH, QUA2), residues 97-283; also called Src-associated protein in mitosis of 68 kDa; source: E. coli Rosetta BL21 DE3, purified (Ni-NTA, TEV cleavage, size-exclusion chromatography); not shown: His tag (inferred from the Ni-NTA purification)
B6: T-STAR STAR domain (amino acids 1-183) (domain or fragment, human, UniProt O75525 1-183, looked up)
chain: T1 sequence
notes: Crystallised with AUUAAA RNA; QUA2 region not seen in the electron density; also called SLM2; source: E. coli Rosetta BL21 DE3, purified (Ni-NTA, TEV cleavage, size-exclusion chromatography); not shown: His tag (inferred from the Ni-NTA purification)

Where a chain is given by its changes, count along the chain named.

A word on the Kd: it is the constant that tells how readily two partners part at equilibrium. A high value points to lower affinity. What is called stoichiometry N is a count of units in the complex or per binding partner.

One series addresses T1, T-STAR STAR. The series can be described thus: fluorescence polarization; 10 mM Tris pH 7, 100 mM NaCl, 0.1% beta-mercaptoethanol; 0.2 uM fluorescein-labelled RNA; protein 0-200 uM; temperature not stated. (In general: Fluorescence polarisation rises when a labelled molecule tumbles more slowly, as on binding a larger partner.)
With UCCGGAUUGGCCUAAAUAGAUGCGCGAUAAUAAUAGAGUA (ssRNA) [G7.1], the Kd was determined as 5.4 µM.
The same measure, in the same setting: the value for UAAACCCCCUAAA (ssRNA) [UAAA-C5-UAAA] was 5.9 µM; that for UAAACCCCCCCCCCUAAA (ssRNA) [UAAA-C10-UAAA] was 7 µM.
In the case of CUGGGUGACACACUAGCUAUAGCAUUAAAAGACCGAGCAAGU (ssRNA) [G8.5], the affinity, expressed as Kd, was 11.7 µM.
Still for that read-out and setting: the value for B1 was 8.5 µM; that for UAAACCCCCCCCCCCCCCCUAAA (ssRNA) [UAAA-C15-UAAA] was 6.7 µM.
The molecule UAAACCC (ssRNA) gave a Kd of 7 µM.
In turn, CCCAAUUAACUAACUAACUAACUUUAAAA (ssRNA) [Nrxn2] gave an equilibrium dissociation constant (Kd) of 1.1 µM. This Kd is about 6.4-fold lower than that of the molecule before.

The target of another series is Sam68 QUA1-KH (UniProt Q07666 97-260). Described as above.
With AAAAA (ssRNA), binding was put at a Kd of 13 µM.
On the same count and under the same terms, then UUAAA (ssRNA), with 50 µM; and UCCGGAUUGGCCUAAAUAGAUGCGCGAUAAUAAUAGAGUA (ssRNA) [G7.1], with 4.3 µM.
Take AUAAU (ssRNA): the Kd turned out to be 49 µM.
Molecule UAAACCCCCUAAA (ssRNA) [UAAA-C5-UAAA] returned an equilibrium dissociation constant (Kd) of 42.7 µM. The Kd values of the last two molecules are within 1.5-fold of each other.
Molecule UAAACCCCCCCCCCUAAA (ssRNA) [UAAA-C10-UAAA] displayed a Kd of 37.3 µM.
Take AUAAA (ssRNA): the affinity, expressed as Kd, was 55 µM.
As for CUGGGUGACACACUAGCUAUAGCAUUAAAAGACCGAGCAAGU (ssRNA) [G8.5], the Kd was determined as 10.3 µM.
The same measure, in the same setting: then CUAAA (ssRNA), with 34 µM; and B1, with 19.1 µM; and UAAACCCCCCCCCCCCCCCUAAA (ssRNA) [UAAA-C15-UAAA], with 26.3 µM.
Turning to UAAACCC (ssRNA), the Kd came to 50 µM.
The molecule CCCAAUUAACUAACUAACUAACUUUAAAA (ssRNA) [Nrxn2] came in with a Kd of 2.2 µM.

Another series concerns the target T2, T-STAR QUA1-KH. Described as above.
In turn, AAAAA (ssRNA) gave a Kd of 6 µM.
On the same count and under the same terms, then UUAAA (ssRNA), with 16 µM; and UCCGGAUUGGCCUAAAUAGAUGCGCGAUAAUAAUAGAGUA (ssRNA) [G7.1], with 4.5 µM.
The molecule AUAAU (ssRNA) showed an equilibrium dissociation constant (Kd) of 45 µM.
With UAAACCCCCUAAA (ssRNA) [UAAA-C5-UAAA], the Kd stood at 5.5 µM. Compared with the last molecule, the Kd is about 8.2-fold lower.
The molecule UAAACCCCCCCCCCUAAA (ssRNA) [UAAA-C10-UAAA] had a Kd of 8.6 µM. This Kd lies about 1.6-fold higher than the previous one.
Molecule AUAAA (ssRNA) came in with a Kd of 37 µM.
CUGGGUGACACACUAGCUAUAGCAUUAAAAGACCGAGCAAGU (ssRNA) [G8.5]: the Kd was 8.1 µM.
With AUAAC (ssRNA), the Kd worked out at 47 µM.
CUAAA (ssRNA) showed a Kd of 18 µM.
On the same count and under the same terms, the value for B1 was 9.4 µM; that for UAAACCCCCCCCCCCCCCCUAAA (ssRNA) [UAAA-C15-UAAA] was 6.8 µM; that for UAAACCC (ssRNA) was 7.9 µM.
Turning to CCCAAUUAACUAACUAACUAACUUUAAAA (ssRNA) [Nrxn2], the dissociation constant (Kd) was 1.7 µM.
The molecule ACAAA (ssRNA) displayed a dissociation constant Kd of 55 µM.

For the next series, the target named is Sam68 QUA1-KH Y241E (UniProt Q07666 97-260, Y241E). The series is described as above.
The molecule UAAACCCCCUAAA (ssRNA) [UAAA-C5-UAAA] yielded a Kd of 4.6 µM.
Molecule UAAACCCCCCCCCCUAAA (ssRNA) [UAAA-C10-UAAA] displayed a Kd of 3.9 µM.
Still for that read-out and setting: then UAAACCCCCCCCCCCCCCCUAAA (ssRNA) [UAAA-C15-UAAA], with 4 µM; and UAAACCC (ssRNA), with 27.1 µM.

The target of a further series is Sam68 STAR (UniProt Q07666 97-283). The series is described as above.
The molecule UCCGGAUUGGCCUAAAUAGAUGCGCGAUAAUAAUAGAGUA (ssRNA) [G7.1] displayed a dissociation constant Kd of 8.2 µM.
The same measure, in the same setting: then CUGGGUGACACACUAGCUAUAGCAUUAAAAGACCGAGCAAGU (ssRNA) [G8.5], with 36.1 µM; and B1, with 65.7 µM; and CCCAAUUAACUAACUAACUAACUUUAAAA (ssRNA) [Nrxn2], with 3.7 µM.

For the next series, the target named is T3, T-STAR QUA1-KH Y141E. The description is as above.
Molecule UAAACCCCCUAAA (ssRNA) [UAAA-C5-UAAA] showed a Kd of 5.3 µM.
In turn, UAAACCCCCCCCCCUAAA (ssRNA) [UAAA-C10-UAAA] displayed a Kd of 4.4 µM.
The molecule UAAACCCCCCCCCCCCCCCUAAA (ssRNA) [UAAA-C15-UAAA] yielded a Kd of 4.7 µM. The Kd values of the last two molecules are within 1.5-fold of each other.
Consider UAAACCC (ssRNA), for which the affinity, expressed as Kd, was 10.9 µM.

The next series deals with T4, T-STAR STAR Y141E. The description is as above.
Take UAAACCCCCUAAA (ssRNA) [UAAA-C5-UAAA]: the Kd is 5.1 µM. In other words, the single-digit micromolar range.
In turn, UAAACCCCCCCCCCUAAA (ssRNA) [UAAA-C10-UAAA] came in with a Kd of 4.9 µM.
On to UAAACCCCCCCCCCCCCCCUAAA (ssRNA) [UAAA-C15-UAAA], for which the affinity, expressed as Kd, was 4.7 µM.
Molecule UAAACCC (ssRNA) showed a Kd of 6.8 µM.

The next series deals with the molecule itself. The experiment in a line: crystal structure; T-STAR constructs in complex with short RNAs (protein/RNA 1:2), sitting drop vapour diffusion at 4 °C; protein in 10 mM Tris pH 7.0, 50 mM NaCl.
As for B2, the binding result was “binds”.
Take B3: the binding result is listed as “binds”.

The next series has as its target Sam68 QUA1-KH domain (human). The series can be described thus: SAXS; 25 °C, 1-20 mg/ml protein in the NMR buffers, in the absence and presence of AAAUAA RNA (10 mg/ml protein, protein/RNA 1:1); molecular weights from Porod volumes.
Regarding “Sam68 QUA1-KH domain (domain or fragment)”, the stoichiometry N came to 2.

The next series concerns the molecule itself. The description is as above.
For B4, the “stoichiometry N” value turned out to be 2.
Still for that read-out and setting: the value for B5 was 2.
Regarding B6, the “stoichiometry N” value was found to be 2.

The next series concerns the target T2, T-STAR QUA1-KH. The series can be described thus: X-ray crystallography; FP: 10 mM Tris pH 7, 100 mM NaCl, 0.1% beta-mercaptoethanol, 0.2 uM fluorescein-RNA, protein 0-200 uM, temperature not stated; NMR 303 K: Sam68 in 10 mM Tris pH.
As to UAAU (ssRNA), the binding result is given as “binds”.

The next series deals with T5, T-STAR KH. Described as above.
Regarding AAAUAA (ssRNA), the binding result is given as “binds”.

Another series deals with T6, T-STAR KH-QUA2. The description is as above.
For AAUAAU (ssRNA), the binding result is given as “binds”.

The values are drawn from PMC4735526 (Nature Communications, 2016).
